The nature of data set [1]: Chemostability in phosphate buffer. The class given is physicochemical. As to conditions: free PDC; 0.01 M phosphate buffer (method pH 7.2), 37 °C, LC-MS PDC peak area, exponential decay fit, two independent experiments. The protocol: Stock solutions were prepared by dissolving 5 mg of P4-chlorambucil, P4-melphalan or P4-bendamustine coated PEG-AuNPs in 1 mL of deionized water.
100 μl of stock solution were diluted to 1 ml of 0.01 M phosphate buffer solution pH 7.2 and incubated at 37 °C. At designated time points an aliquot was removed and centrifuged at 5000 rpm for 5 min. The supernatant was recovered, filtered through a […] syringe and analyzed by LCMS for the presence of free drug. Results for each time point were expressed as mean % PDC integrity ± standard error, calculated from two independent experiments.
(§1) The chemo-stability of the P4-PDCs was tested at a physiological pH of 7.4, while the solutions were incubated at 37 °C. Biostability was assessed after incubation in a mouse liver homogenate. In each case aliquots were taken at selected times and analyzed by LC–MS. PDC integrity was determined by calculating the area under the curve of the PDC peak. The R^2 values of the exponential decay curves ranged from 0.97 to 0.99 for the three PDCs; the functions of these curves were used to calculate the t½ values. […] In liver homogenate (Fig. 5c), stability decayed more rapidly with half-lives ranging from 10.6 to 15.4 min. There was no significant difference in behavior between the three PDCs and no free drug was observed.

A short description of data set [2]: Biostability in liver homogenate. The conditions noted are these: pH 7.4; free PDC; 100 µl sample in 1 ml mouse liver homogenate (6 mg total protein), 37 °C, LC-MS, exponential decay fit; read-out: Biostability (liver homogenate) t½. The format is in vitro ADME. The protocol:
Mice were sacrificed by CO2 euthanasia. Livers were removed, and rinsed in cold 0.01 M PBS buffer pH 7.4. They were transferred to 10 ml Tris-HCI, pH 7.4 and homogenized in a Potter–Elvehjem glass tissue grinder for 4 min. The tissue homogenate was centrifuged for 20 min at 4 °C, 14,000 rpm, and the supernatant was collected. Protein concentration was measured using the BCA protein assay using bovine serum albumin as a standard. The homogenate was used immediately or else stored in liquid nitrogen.
100 μl of each sample was added to 1 ml of liver homogenate (equivalent to 6 mg total protein). The samples were incubated at 37 °C and aliquots were taken during the different incubation period at different time intervals. The collected aliquots were immediately filtered, and analyzed by LC–MS.
as §1

For a further data set, the system named is A20 cells. The experiment in a line: Cell cytotoxicity assay (XTT). The conditions noted are these: 72 h, free drug 0-50 µM; for IC50: Mus musculus. The class given is cell-based, murine. As to the method:
To measure drug cytotoxic effect, cells were seeded into 96-wells Nunclon culture plates at 2.5 × 10^3 cells per well and grown overnight at 37 °C. The spent medium was removed and the cells cultured for 72 h in fresh medium containing either free drug, PDCs, PEG-AuNPs or PDC-PEG-AuNPs at concentrations ranging from 0 to 50 µM (drug) filtered through a 0.22 µm syringe. Cellular metabolic status, used as a measure of cell viability, was then determined by replacing the culture medium with fresh medium containing XTT reagent (50 µl/well) and the cells were re-cultured for 2 h sat 37 °C. Absorbance in the wells was measured at 450 nm and subtracted from the reference absorbance at 630 nm. Culture medium was used as background control. All experiments were performed in triplicate on three separate occasions. Data are presented as mean ± S.D.
On the technique in general: Tetrazolium dyes change colour on reduction, which living cells bring about.

Where a SMILES comes first, the peptide text is derived from it. [ ]: non-standard residue; d: D form. The star is where a group is joined. Phe(4-N(CH2CH2Cl)2) = N[C@@H](Cc1ccc(N(CCCl)CCCl)cc1)C(=O)O; Chlorambucil = O=C(CCCc1ccc(N(CCCl)CCCl)cc1)*; X1 = Cn1c(CCCC(=O)*)nc2cc(N(CCCl)CCCl)ccc21

As for `C[C@@H](O)[C@H](NC(=O)[C@H](CO)NC(=O)[C@H](Cc1c[nH]cn1)NC(=O)CCCc1ccc(N(CCCl)CCCl)cc1)C(=O)N1CCC[C@H]1C(=O)N[C@@H](CO)C(=O)N[C@@H](CO)C(=O)N1CCC[C@H]1C(=O)O` [P4-Chlorambucil] (Chlorambucil-HSTPSSP-OH), in data set [1], the “Chemostability (pH 7.4) t½” value is 21.5 mins. Besides, the half-life in data set [2] was found to be 12.4 min.
For `C[C@@H](O)[C@H](NC(=O)[C@H](CO)NC(=O)[C@H](Cc1c[nH]cn1)NC(=O)CCCc1nc2cc(N(CCCl)CCCl)ccc2n1C)C(=O)N1CCC[C@H]1C(=O)N[C@@H](CO)C(=O)N[C@@H](CO)C(=O)N1CCC[C@H]1C(=O)O` [P4-Bendamustine] (X1-HSTPSSP-OH) the same measures were 19.3 mins and 15.4 min.
The IC50 is the concentration at which inhibition is half-maximal. Higher therefore signals weaker potency. On to `Cn1c(CCCC(=O)O)nc2cc(N(CCCl)CCCl)ccc21` [bendamustine], for which, in the data set with A20 cells, the “maximal %GI (growth inhibition)” value stood at 43.1% and the half-inhibitory concentration (IC50) is greater than 50 µM.
The matching figures for `O=C(O)CCCc1ccc(N(CCCl)CCCl)cc1` [Chlorambucil]: 89.4% and 15.8 µM.
The matching figures for `N[C@@H](Cc1ccc(N(CCCl)CCCl)cc1)C(=O)O` [Melphalan]: 94.9% and 9.6 µM.
On to `C[C@@H](O)[C@H](NC(=O)[C@H](CO)NC(=O)[C@H](Cc1c[nH]cn1)NC(=O)[C@@H](N)Cc1ccc(N(CCCl)CCCl)cc1)C(=O)N1CCC[C@H]1C(=O)N[C@@H](CO)C(=O)N[C@@H](CO)C(=O)N1CCC[C@H]1C(=O)O` [P4-Melphalan] (H-[Phe(4-N(CH2CH2Cl)2)]HSTPSSP-OH), for which, in data set [1], the “Chemostability (pH 7.4) t½” value is on record as 24.6 mins. Besides, the half-life in data set [2] amounted to 10.6 min.
